The results in this text go back to publication PMC8106883.

The target in the assay is angiotensin-converting enzyme 2 (ACE2) on transfected HEK293T cells (human) (UniProt Q9BYF1).

In turn, S1-hFc N282Q (Fc fusion) registered a fold binding relative to WT S1-Fc of 3 fold.
